Publication PMC7155755, “Binding of the Human 14-3-3 Isoforms to Distinct Sites in the Leucine-Rich Repeat Kinase 2” (Frontiers in Neuroscience, 2020)
“Also recorded” adds a separate entry of the source. Square brackets hold non-standard residues; d marks the D form. Ends that are not written are not given here. fluorescein = N-terminal fluorescein label; pS = N[C@@H](COP(=O)(O)O)C(=O)O

What was measured:
human 14-3-3 isoform η = target: T1, human 14-3-3 isoform η (Homo sapiens, UniProt Q04917); assay: Fluorescence polarization (FP) direct binding assay; details: fluorescein-labeled peptide 1 nM
T1 construct: MBP (cleaved yes); made in house; host or cells: E. coli BL21DE3
Procedure: (§1) Human MBP-tagged 14-3-3 isoforms were expressed from pMAL2CX plasmids [[Kilisch et al. (2016)], [Yuan et al. (2003)]] in E. coli BL21DE3 cells. After induction with […] isopropyl-β-D-thiogalactoside, the protein was expressed for 4 h at room temperature. Cells were lysed in MBP-lysis buffer [50 mM Tris–HCl pH 7.5, 150 mM NaCl, 5 mM MgCl2, 1 mM PMSF, 1× cOmplete Protease Inhibitor EDTA-free (Roche)] using a French Pressure cell (FRENCH Press, Thermo, United States). Following centrifugation at 42,000 × g and 4°C for 30 min, the supernatant was transferred to a Maltose-agarose column (1.5 ml bed volume; New England Biolabs GmbH, Germany). Captured proteins were washed six times with 10 ml wash buffer (50 mM Tris–HCl pH 7.5, 150 mM NaCl, 5 mM MgCl2) prior to elution using wash buffer including 15 mM D-maltose. To remove the MBP tag, fusion proteins were incubated with Factor Xa (New England Biolabs GmbH, Germany), at a final concentration of 0.4 μg per 1 mg fusion protein for 24 h at RT following another 72 h at 4°C. Anion exchange chromatography was finally applied to separate residual MBP using a buffer gradient from 20 mM Tris pH 8 to 20 mM Tris pH 8 with 1 M NaCl. For this a RESOURCE Q column (GE Healthcare, United Kingdom) was utilized, employing an ÄKTApurifier (GE Healthcare, United Kingdom) or an NGC Quest Chromatography System (Bio-Rad Laboratories GmbH, Germany).
(§2) FP was used to determine binding affinities of different phosphorylated and non-phosphorylated peptides derived from LRRK2 sequences (Peps4LS GmbH, Germany) toward human 14-3-3 isoforms. Direct binding assays were performed and evaluated as previously described ([Muda et al., 2014]; [Manschwetus et al., 2019]). Briefly, both dilution series of 14-3-3 isoforms ranging from final concentrations of at least 5 μM down to picomolar concentrations and dilutions of the respective fluorescein-labeled peptide (final conc. 1 nM) were prepared in FP buffer (20 mM MOPS pH 7, 150 mM NaCl, 0.005% CHAPS). Subsequently, samples were mixed in 384-well microtiter plates as duplicates (BRAND plates, pureGrade, black, BRAND GmbH & Co. KG, Germany) in a 1:1 ratio and measured using a CLARIOstar plate reader (BMG LABTECH, Germany). Two protein preparations were utilized for at least two independent replications for all measurements while high affinity binding peptides were particularly measured with a minimum of three independent replications for statistical evaluation. Data was analyzed with GraphPad Prism 6.0 (GraphPad Software, San Diego, CA, United States) by plotting obtained FP signals (mPol) against the logarithmic 14-3-3 protein concentrations. Data points represent means ± standard error of mean (SEM) of duplicates. “Ctrl.” indicates the FP signal of fluorescein-labeled peptides without 14-3-3 protein. Sigmoidal dose-response fitting was performed to define KD-values.

human 14-3-3 isoform θ = target: T2, human 14-3-3 isoform θ (Homo sapiens, UniProt P27348); assay: as above; details: fluorescein-labeled peptide 1 nM
T2 construct: MBP (cleaved yes); made in house; host or cells: E. coli BL21DE3
Procedure: as §1, §2

human 14-3-3 isoform σ = target: T3, human 14-3-3 isoform σ (Homo sapiens, UniProt P31947); assay: as above; details: fluorescein-labeled peptide 1 nM
T3 construct: MBP (cleaved yes); made in house; host or cells: E. coli BL21DE3
T3 sequence (P31947 1-248): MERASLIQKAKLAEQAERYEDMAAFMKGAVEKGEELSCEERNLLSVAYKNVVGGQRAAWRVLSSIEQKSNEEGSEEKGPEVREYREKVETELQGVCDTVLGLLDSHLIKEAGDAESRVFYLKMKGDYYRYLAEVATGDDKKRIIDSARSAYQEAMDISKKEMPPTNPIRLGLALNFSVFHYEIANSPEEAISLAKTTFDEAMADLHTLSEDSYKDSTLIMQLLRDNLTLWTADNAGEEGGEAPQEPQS
Procedure: as §1, §2

human 14-3-3 isoform ϵ = target: T4, human 14-3-3 isoform ϵ (Homo sapiens, UniProt P62258); assay: as above; details: fluorescein-labeled peptide 1 nM
T4 construct: MBP (cleaved yes); made in house; host or cells: E. coli BL21DE3
T4 sequence (P62258 1-255): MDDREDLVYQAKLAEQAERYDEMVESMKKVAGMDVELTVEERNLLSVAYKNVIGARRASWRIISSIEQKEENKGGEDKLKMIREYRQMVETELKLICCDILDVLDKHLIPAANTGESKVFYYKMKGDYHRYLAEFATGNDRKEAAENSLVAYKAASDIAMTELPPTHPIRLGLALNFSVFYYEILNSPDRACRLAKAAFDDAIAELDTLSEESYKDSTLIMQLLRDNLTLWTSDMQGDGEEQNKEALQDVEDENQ
Procedure: as §1, §2

human 14-3-3γ = target: T5, human 14-3-3γ (Homo sapiens, UniProt P61981); assay: as above; details: dilution series of 14-3-3γ (at least 5 μM down to pM), fluorescein-labeled peptide 1 nM, FP buffer pH 7
T5 construct: MBP (cleaved yes); made in house; host or cells: E. coli BL21DE3
T5 sequence (P61981 1-247): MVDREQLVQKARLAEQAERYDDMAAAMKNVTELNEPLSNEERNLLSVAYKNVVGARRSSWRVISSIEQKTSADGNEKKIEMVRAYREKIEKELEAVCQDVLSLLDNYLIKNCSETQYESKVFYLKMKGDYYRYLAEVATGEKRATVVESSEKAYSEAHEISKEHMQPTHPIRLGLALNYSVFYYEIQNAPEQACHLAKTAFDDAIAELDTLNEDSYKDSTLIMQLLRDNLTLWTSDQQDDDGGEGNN
Procedure: as §1, §2

[1] = tested on: all seven human 14-3-3 isoforms; assay: Fluorescence polarization (FP) direct binding assay, statements over all isoforms; details: FP direct binding; all seven isoforms; fluorescein-labeled peptide 1 nM; FP buffer pH 7
Procedure: as §1, §2

[2] = target: T6, human 14-3-3 isoform β (recombinant, MBP tag removed) (human, UniProt P31946 1-246); assay: fluorescence polarisation; direct binding; dilution series of 14-3-3 isoform (at least 5 μM down to picomolar) mixed with 1 nM fluorescein-labelled peptide; 20 mM MOPS pH 7, 150 mM NaCl, 0.005% CHAPS; 384-well plates; details: both partners purified
T6 construct: 14-3-3 beta, human; Expressed from pMAL2CX plasmids; also called 14-3-3β; source: E. coli BL21DE3, purified (maltose-agarose, Factor Xa, anion exchange)
T6 sequence (looked up): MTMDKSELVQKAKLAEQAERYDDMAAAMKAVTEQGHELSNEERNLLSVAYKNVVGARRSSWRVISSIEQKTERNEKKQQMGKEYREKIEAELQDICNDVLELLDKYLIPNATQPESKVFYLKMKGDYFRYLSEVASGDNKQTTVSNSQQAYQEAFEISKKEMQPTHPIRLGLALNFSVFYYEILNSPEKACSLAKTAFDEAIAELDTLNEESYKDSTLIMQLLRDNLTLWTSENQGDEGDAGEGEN

[3] = target: T7, human 14-3-3 isoform ε (recombinant, MBP tag removed) (human, UniProt P62258 1-255); assay: as above; details: both partners purified
T7 construct: 14-3-3 epsilon, human; Expressed from pMAL2CX plasmids; also called 14-3-3ε; source: E. coli BL21DE3, purified (maltose-agarose, Factor Xa, anion exchange)
T7 sequence (looked up): T4 sequence (P62258 1-255)

[4] = target: T8, human 14-3-3 isoform ζ (recombinant, MBP tag removed) (human, UniProt P63104 1-245); assay: as above; details: both partners purified
T8 construct: 14-3-3 zeta, human; Expressed from pMAL2CX plasmids; also called 14-3-3ζ; source: E. coli BL21DE3, purified (maltose-agarose, Factor Xa, anion exchange)
T8 sequence (looked up): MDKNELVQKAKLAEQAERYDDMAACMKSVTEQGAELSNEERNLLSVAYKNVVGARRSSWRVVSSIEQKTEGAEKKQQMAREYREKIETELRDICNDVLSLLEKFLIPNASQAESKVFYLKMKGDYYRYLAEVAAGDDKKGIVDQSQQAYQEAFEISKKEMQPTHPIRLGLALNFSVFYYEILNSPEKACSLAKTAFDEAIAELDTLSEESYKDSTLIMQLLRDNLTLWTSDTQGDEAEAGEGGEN

[5] = target: T9, human 14-3-3 isoform η (recombinant, MBP tag removed) (human, UniProt Q04917 1-246); assay: as above; details: both partners purified
T9 construct: 14-3-3 eta, human; Expressed from pMAL2CX plasmids; also called 14-3-3η; source: E. coli BL21DE3, purified (maltose-agarose, Factor Xa, anion exchange)
T9 sequence (looked up): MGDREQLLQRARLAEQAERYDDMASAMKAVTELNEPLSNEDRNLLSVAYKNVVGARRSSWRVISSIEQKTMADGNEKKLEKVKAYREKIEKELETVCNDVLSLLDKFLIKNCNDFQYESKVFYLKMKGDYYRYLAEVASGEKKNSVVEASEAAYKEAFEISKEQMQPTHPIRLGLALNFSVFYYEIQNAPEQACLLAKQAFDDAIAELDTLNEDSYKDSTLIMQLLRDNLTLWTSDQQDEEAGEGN

[6] = target: T10, human 14-3-3 isoform θ (recombinant, MBP tag removed) (human, UniProt P27348 1-245); assay: as above; details: both partners purified
T10 construct: 14-3-3 theta, human; Expressed from pMAL2CX plasmids; also called 14-3-3θ; source: E. coli BL21DE3, purified (maltose-agarose, Factor Xa, anion exchange)
T10 sequence (looked up): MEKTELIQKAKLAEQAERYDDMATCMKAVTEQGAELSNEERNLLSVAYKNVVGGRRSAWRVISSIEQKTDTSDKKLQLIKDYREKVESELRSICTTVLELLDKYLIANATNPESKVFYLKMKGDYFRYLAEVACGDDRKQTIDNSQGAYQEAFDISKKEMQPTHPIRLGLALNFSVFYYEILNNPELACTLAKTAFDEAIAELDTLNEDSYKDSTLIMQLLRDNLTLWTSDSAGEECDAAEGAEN

[7] = target: T11, human 14-3-3 isoform σ (recombinant, MBP tag removed) (human, UniProt P31947 1-248); assay: as above; details: both partners purified
T11 construct: 14-3-3 sigma, human; Expressed from pMAL2CX plasmids; also called 14-3-3σ; source: E. coli BL21DE3, purified (maltose-agarose, Factor Xa, anion exchange)
T11 sequence (looked up): T3 sequence (P31947 1-248)

For “SFLVKKKSNpSISVGEFYRD [pS910, fluorescein-labeled LRRK2-derived phosphopeptide covering pS910]”, the “Binding to 14-3-3 isoform η, in words” value (human 14-3-3 isoform η) was “highest affinities, yet in a micromolar range”, the “Binding to 14-3-3 isoform θ, in words” value (human 14-3-3 isoform θ) was “weakest binding” and the “Binding to 14-3-3 isoform σ, in words” value (human 14-3-3 isoform σ) was “No binding”. The “Binding to 14-3-3 isoform ϵ, in words” value (human 14-3-3 isoform ϵ) was “No binding”, the “Binding to 14-3-3γ, in words” value (human 14-3-3γ) was “micromolar binding affinity; also recorded: highest affinities, yet in a micromolar range” and the “Binding to the human 14-3-3 isoforms, in words” value [1] was “micromolar affinities for the 14-3-3 isoforms except σ and ϵ; also recorded: low affinity”.

B1: Q930R/pS935 (peptide)
peptide: fluorescein-RCSPNLRRHSN[pS]LGPIFDH
notes: LRRK2-derived peptide with the possible pathogenic mutation Q930R, phosphorylated at S935; source: synthetic peptide (Peps4LS GmbH)
For B1, the Kd [2] was 29.5 nM, the Kd [3] was 48.5 nM and the Kd [4] was 23.9 nM. It also gave a Kd [5] of 13.3 nM, a Kd [6] of 73.1 nM and a Kd [7] of 350 nM.

B2: pS910/pS935 (peptide)
peptide: fluorescein-KKSN[pS]ISVGEFYRDAVLQRCSPNLQRHSN[pS]LGPIF
notes: LRRK2-derived 35-mer covering S910 and S935, phosphorylated at both; source: synthetic peptide (Peps4LS GmbH)
Molecule B2 has a Kd [2] of 21.1 nM, a Kd [3] of 12.4 nM and a Kd [4] of 4.8 nM. For the same molecule, the Kd [5] was 4.8 nM, the Kd [6] was 9.5 nM and the Kd [7] was 60.6 nM.
